In US20210255205A1, “COMPOSITIONS AND METHODS FOR TREATING METABOLIC DISEASE” (THE REGENTS OF THE UNIVERSITY OF CALIFORNIA, priority 2018, published 2021):

Experiment: in vitro cholesterol transfer between heavy and light liposomes
Type: biochemical
Conditions: purified recombinant ASTER domain, 15 min under agitation
Experimental: Values are means±SEM. […] Input (Ctrl) served as a control for LXR enrichment. […] Values are means±SEM. […] Results values are means±SD. […] Results values are means±SD. […] Values are means±SEM.
Liposomes were generated by drying lipids in glass tube under liquid nitrogen. Lipid films were then resuspended in 50 mM hepes, 120 mM potassium acetate buffer ±0.75M sucrose where indicated. Lipid suspensions were then vortexed and incubated for 30 minutes at 37° C. (2 mM total lipid concentration). Suspensions were then snap frozen in liquid nitrogen and thawed rapidly at 37° C. five times. Light liposomes were prepared by extruding through 100 nm polycarbonate filters. Heavy liposomes containing sucrose were prepared by extruding through a 400 nm polycarbonate filter, then washing several times in 50 mM hepes, 120 mM potassium acetate buffer with no sucrose. Liposome sizes were confirmed using an N4 Dynamic Light Scattering instrument.
To test the ability of the ASTER domain to transfer cholesterol between membranes, an in vitro assay was optimized with heavy and light liposomes. Purified recombinant ASTER domain was incubated with “heavy” PC/dansyl-PE liposomes and “light” PC/cholesterol/dansyl-PE liposomes under agitation for 15 min. The liposomes were separated by centrifugation, and cholesterol levels were determined. Dansyl-PE intensities of heavy liposomes were used to normalize the cholesterol values.

B1: Aster-C: purified recombinant ASTER domain of mouse Aster-C (protein, UniProt Q8CI52 206-528, looked up, fragment)
chain: MEHLLSVEENVQPRSPGRSSVDDAGERDEKFSKAVSFTQESVSRASETEPLDGNSPKRGLGKEDSQSERNVRKSPSLASEKRISRAPSKSLDLNKNEYLSLDKSSTSDSVDEENIPEKDLQGRLYINRVFHISAERMFELLFTSSHFMQRFANSRNIIDVVSTPWTVESGGNQLRTMTYTIVLSNPLTGKYTAATEKQTLYKESREAQFYLVDSEVLTHDVPYHDYFYTLNRYCIVRSAKQRCRLRVSTDLKYRKQPWGLIKSLIEKNSWSSLESYFKKLESDLLMEESVLSQSIEDAGKHSSLRRRRRTLNRTAEPVPKLSS
modifications: ASTER domain
cholesterol transfer to the heavy liposomes: efficiently facilitated cholesterol transfer

B2: Aster-B: purified recombinant ASTER domain of mouse Aster-B (protein, UniProt Q80TI0 224-560, looked up, fragment)
chain: NELGLTSDDEDYVPPDDDFNTMGYCEEIPIEENEVNDSSSKSSIETKPDASPQLPKKSITNSTLTSTGSSEAPVSFDGLPLEEEVMEGDGSLEKELAIDNIIGEKIEIMAPVTSPSLDFNDNEDIPTELSDSSDTHDEGEVQAFYEDLSGRQYVNEVFNFSVDKLYDLLFTNSPFLRDFMEQRRFSDIIFHPWKKEENGNQSRVILYTITLTNPLAPKTATVRETQTMYKASQESECYVIDAEVLTHDVPYHDYFYTINRYTLTRVARNKSRLRVSTELRYRKQPWGFVKTFIEKNFWSGLEDYFRHLETELTKTESTYLAEIHRQSPKEKASKSSA
modifications: ASTER domain
cholesterol transfer to the heavy liposomes: efficiently facilitated cholesterol transfer

B3: Aster-A: purified recombinant ASTER domain of mouse Aster-A (protein, UniProt Q8VEF1 261-576, looked up, fragment)
chain: AADHSQEPSPVGSRRGRVTPNLSRASSDADHGAEEDKEEQTDGLDASSSQTVTPVAEPLSSEPTPPDGPTSSLGPLDLLSREELLTDTSNSSSSTGEEGDLAALLPDLSGRLLINSVFHMGAERLQQMLFSDSPFLQGFLQQRKFTDVTLSPWSSDSKCHQRRVLTYTIPISNQLGPKSASVVETQTLFRRGPQAGGCVVDSEVLTQGIPYQDYFYTAHRYCILGLARNKARLRVSSEIRYRKQPWSLVKSLIEKNSWSGIEDYFHHLDRELAKAEKLSLEEGGKDTRGLLSGLRRRKRPLSWRGHRDGPQHPDPD
modifications: ASTER domain
cholesterol transfer to the heavy liposomes: efficiently facilitated cholesterol transfer
